# According to the DeepSol protein solubility set:
# Experiment: soluble on expression in E. coli; label from the status in PepcDB or PDB records
row,Sequence,soluble on expression in E. coli
1,MSLSVADIAYVVFNHVDLLEAERFYTDFGLTVAYRNEFEVAFRPAMERSYCYVARKADKPGLVSIGLSAASQEDLVVAAQFPEASPIQAIERPGGGQVVRLTSPDGVNFELVHGIDVYPARPVRDALSINTGIVKTRHGQWQRPELEPASILRLGHVALLTGDFKTNAQWLRSRFGFMPSDVLFADAPENQVGAFFHCTGGNPWTDHHTLALFPSDGSRMHHCSFEIQDLDAQFLGNKWLASRGWKPGWGVGRHILGSQIFDYWFDPAGNLVEHFTDGDLIQAGAAPGMHPLDDDALAMWGPPLTASKFVAMAAREGHHHHHH,soluble
2,MYKIVNNDQNKRLVIAKSKAQSLRKTFLHSCLPKMPLSQPWSHSFEICQEHNTQKRISYSRLHRSIGRLRVFLTDDNSILKSTNKFIKILIQQIAFHNLFRWYCRWNDEFQVDEHLDHFCRKDKAQEVFNVSWLVLKFNVFKLYTQKFLYTYSFITIFRLSFRFPTTFRSIF,not soluble
3,MSLDRIKEYLQDKGKVTVNDLAQALGKDSSKDFRELIKTLSLMERKHQIRFEEDGSLTLEAKKKHEITLKGIFHAHKNGFGFVSLEGEEDDLFVGKNDVNYAIDGDTVEVVIKKVADRNKGTAAEAKIIDILEHSLTTVVGQIVLDQEKPKYAGYIRSKNQKISQPIYVKKSALKLEGTEVLKVFIDKYPSKKHDFFVASVLDVVGHSTDVGIDVLEVLESMDIVSEFPEAVVKEAESVPDAPSQKDMEGRLDLRDEITFTIDGADAKDLDDAVHIKALKNGNLELGVHIADVSYYVTEGSALDKEALNRATSVYVTDRVVPMLPERLSNGICSLNPQVDRLTQSAIMEIDKHGRVVNYTITQTVIKTSFRMTYSDVNDILAGDEEKRKEYHKIVSSIELMAKLHETLENMRVKRGALNFDTNEAKILVDKQGKPVDIVLRQRGIAERMIESFMLMANETVAEHFSKLDLPFIYRIHEEPKAEKVQKFIDYASSFGLRIYGTASEISQEALQDIMRAVEGEPYADVLSMMLLRSMQQARYSEHNHGHYGLAADYYTHFTSPIRRYPDLLVHRMIRDYGRSKEIAEHFEQVIPEIATQSSNRERRAIEAEREVEAMKKAEYMEEYVGEEYDAVVSSIVKFGLFVELPNTVEGLIHITNLPEFYHFNERDLTLRGEKSGITFRVGQQIRIRVERADKMTGEIDFSFVPSEFDVIEKGLKQSSRSGRGRGSNRRSDKKEDKRKSGRSNDKRKHSQKDKKKKGKKPFYKEVAKKGAKHGKGRGKGRRTKEGHHHHHH,not soluble
4,MGSDKIHHHHHHMKWNWQQPDWPDFRWNSEALAVHEARFLQQSGIMIGVVKHLGDEDRTSVVLDVMTDEAMKTSQIEGELLNRDSVQSSLRREFGLETEARRIPPAERGIAEMMMALFRDFAAPLTEEVLGDWHRLVLSGRSDIDVVGRYREHEDAMQVVSGALHKPTVHFEAPPSREMAAEMARFLEWFAATGPGGATPLPGLTRSGLAHLYFVTIHPFEDGNGRIGRAIAEKALSQAIGQPSLIALSQTIQRRRSAYYDALEAANKSNEISDWLAYWAETVLDAQTHSLALIDFLLEKTRFHDRYRGKLNPRQEKVIARMFREGLDGFKGGLSAANYITIADTSRATATRDLQELVALGAMGQTGTLKATRYHLILDAVAGTNPPVNQA,not soluble
5,MLQSNEYFSGKVKSIGFSSSSTGRASVGVMVEGEYTFSTAEPEEMTVISGALNVLLPDATDWQVYEAGSVFNVPGHSEFHLQVAEPTSYLCRYL,soluble
6,MWSTIFFVFSTFVLIVDSGSVGLCRTECIEQNSRKIVRVHLKDQLVMAGLCNNNTQQTGSIVTPYVCHRNIGLWTLDELDEEGTVKFETLCPTPEQYPLELRATCPRVDAQHDDTPNEMDIDDYPNSGDTPLSVV,not soluble
7,GPGSMDYNLEYSEEQREYLERVGMREYLETFVAEVVRQKPNDIYAFLHDWASAHCQKQTKMTPTEASIKIQCAQRQNLAIKEMRSRQRKVNELLEQEETERVGKVEMEG,soluble
8,QLSPDIYAKSCPNLVQIVRKQVAIALKAEIRMAASLIRLHFHDCFVNGCDASLLLDGADSEKLAIPNINSARGFEVIDTIKAAVENACPGVVSCADILTLAARDSVVLSGGPGWRVALGRKDGLVANQNSANNLPSPFEPLDAIIAKFVAVNLNITDVVALSGAHTFGQAKCAVFSNRLFNFTGAGNPDATLETSLLSNLQTVCPLGGNSNITAPLDRSTTDTFDNNYFKNLLEGKGLLSSDQILFSSDLAVNTTKKLVEAYSRSQSLFFRDFTCAMIRMGNISNGASGEVRTNCRVINN,soluble
9,MDNKLDVFRRELVDVEGIPLFWSIAEHWSQVESFEARPDDILISTYPKSGTTWVSEILDLIYNNGDAEKCKRDAIYKRVPFMELIIPGITNGVEMLNNMPSPRIVKTHLPVQLLPSSFWKNDCKIIYVARNAKDVVVSYYYFYQMAKIHPEPGTWEEFLEKFMAGQVSFGPWYDHVKSWWEKRKEYRILYLFYEDMKENPKCEIQKILKFLEKDIPEEILNKILYHSSFSVMKENPSANYTTMMKEEMDHSVSPFMRKGISGDWKNQFTVAQYEKFEEDYVKKMEDSTLKFRSEI,soluble
10,MSLTSPLAYSYTHTGTEATTGYFSCEPPQDMTMEQALAWLAVHPMDDFMHRHLLRRLGEMSPEELAKLGPTLQASPVLEALFCELCALAPEGSPLRATLTEILEGLSTTSEASPAAIAERLGAYTPLPYIGWAALPDRELHQAWCRLFSDNIQNHRMLPHPEDNDLAPLYADEEPATRPEPPITAVHARLAAAPGTPWSRPPAHETAQKALEVLVENDIIAGVEMRHEASLSPIALLRRWRLDLGVRNGGLAYTLRGEATTYGRGLSLADARASYAMEMVERASSYANVGPEGILGLTRPQPLRKARHSELVAEGLAVLDPNAIPLEVPYRDQPIHWLTGHASEANGNAPTLVPAQMVYLFCNLDEVALFTSSSSTGLASGNTLAEAKVAALTEILERDAEATTPYDRARCFRPATDDPLLRSLLEDYAARGIQIQMQDMTTEWGIPCYTCFVMSSRGKLARGTGAGLDGRRAAISALTETPYPYPRGGASGPGLRGLPERKLEDLPSFTLESPERNLALLEETLASTGHHPVYVELTRADLGLPVVKALIPGLELTADFDDCTRISRRLYRNYLRMGYDEGHHHHHH,soluble
11,MGSDKIHHHHHHMITSDELTENLSPFELSLFLEKKLHEENHNLETLLNAGRGNPNWTAPTPREAFFLLGQFATKETLREGSEQTAGMIQPSFGRTQRFLNFLAENPSKGATFLQEIWTAEHNYFGMDKEMWLDAMLDYVIGDNYPNPVRCLKACEQPIKAYLNQELFSSEAQPFDIFAVEGGTAGICYLFDTLANNYLLEKGDRIALLLPTFAPYLEIPELPRYDFDVVKIKAEQMIIDGKTTYQYSNKEIDKLKDPSIKAVFVVNPSNPTANAMGKPTIEQIKQISAVDNPKLMILTDDVYGTFVPAFRSLFTELPYNTACIYSYSKYFGATGWRVGTIAVSQENIFDQLLKELPVARKMELQARYATLNADTSQINFISRLVADSRDIALNHAAGLSSIQQAMMALFSLYALLKDGQAYKDEVMDICHTREKLLFRTLGIEEPLASLNTAYYCEINFRDWTEKRYGPEFSSYLTKSWTITKVLTSLAEKEKLMLLKADAFGSDKWSVRISLANLATNQYSEVGKRMIRLSEHIKEEWLRQKRQAIK,not soluble
12,MGHHHHHHSHPSIPNPFPELCCSPFTSVLSADLFPKANSRKKQVIKVYSEDETSRALDVPSDITARDVCQLLILKNHYIDDHSWTLFEHLPHIGVERTIEDHELVIEVLSNWGIEEENKLYFRKNYAKYEFFKNP,soluble
13,MYFRLESQFSINGSMIVLINGAEPSLESHVAFYETGTFTVEQGEMRMIELKYQSTMENIHAFLDVVTGAIDIHLSPCKSQETDIFYSNLAAGSHRIDIDLKTMMDNVSVLLKKNVSKLHKAKR,not soluble
14,MGSDKIHHHHHHMINSHQTQPLLRLENIEKSYGSHRILNKVSFCLYPGEITALIGDNGAGKSTLVQIISGYIQADKGNIYWQEQPLCYSNQYNAPFEMRRLGIQIVHQQLALIDELSIWRNFFLGNEINKKIGPFKFLNIRLMQHIASQSLQSFGLVCLPNIDLPVKKLSGGERQMLVVCRAKYFNAKLLILDEPTSALSPAQADKVLQIIKNIAQAGIAIVFITHNPAHIQNTAHKVIKLSCGTIEIMELTNTLIKG,not soluble
15,RHVTGVHSPTKPASYSVKWTIEEKELFEQGLAKFGRRWTKISKLIGSRTVLQVKSYARQYFKNKVKCGLDKETPNQKTGHNLQVKNEDKGTKAWTPSCLRGRADPNLNAVKIEKLSDDEEVDITDEVDELSSQTPQKNSSSDLLLDFPNSKMHETNQGEFIASDSQEALFSKSSRGCLQNEKQDETLSSSEITLWTEKQSNGDKKSIELNDQKFNELIKNCNKHDGRGIIVDARQLPSPEPCEIQKNLNDNEMLFHSCQMVEESHEEEELKPPEQEIEIDRNIIQEEEKQAIPEFFEGRQAKTPERYLKIRNYILDQWEICKPKYLNKTSVRPGLKNCGDVNCIGRIHTYLELIGAINFGCEQAVYNRPQTVDKVRIRDRKDAVEAYQLAQRLQSMRTRRRRVRDPWGNWCDAKDLEGQTFEHLSAEELAKRREEEKGRPVKSLKVPRPTKSSFDPFQLIPCNFFSEEKQEPFQVKVASEALLIMDLHAHVSMAEVIGLLGGRYSEVDKVVEVCAAEPCNSLSTGLQCEMDPVSQTQASETLAVRGFSVIGWYHSHPAFDPNPSLRDIDTQAKYQSYFSRGGAKFIGMIVSPYNRNNPLPYSQITCLVISEEISPDGSYRLPYKFEVQQMLEEPQWGLVFEKTRWIIEKYRLSHSSVPMDKIFRRDSDLTCLQKLLECMRKTLSKVTNCFMAEEFLTEIENLFLSNYKSNQENGVTEENCTKELLM,soluble
16,MTARTITDVITRPLPPLPLTAAASAEVLPDWAQPARRHPAAQPWPENLTRMAVGVVDSTGATGWFGPVSATVARMVFDQVAPAVIGRELAAWRAMASLAPHGRHRQGAHLRLAVSAVELAAWDLRSHATGVPVGALLAGERRERIPVYATALGIDIDHPLAPDIAAWLVDEGFWAQKWGLPGAARGETPRADAARLRRLREAAGERARIGVDVGGRWPADYARQMLPVLAEAGVCWVEEPGPISDADLARHGLARAAGEHDYEPTDQLRTLGGDIQIWQPDPTWCGGLAHTLSMVELAARLNIRSLPHGSGLAAALALAASAPAAAVPAIEYHLTLEPLRQDHQLDPLVPAAGHLDARTAAGLTSGYRFGEGDAGAAA,soluble
17,MSLSTPSKAMAAMEFNTTSVNKSSAIDSNNTKKEQLSDVNDISFTDHGYYIIPSLDTLNGMPLVELRSVNGLVVGHKDYGKVEFLEPVDLVNVPLNSICDKLIHFEPKTCILYPNSPIKPKKGEGMNVPAKITCFDCFPINKSTREPILDANSTLLKKHIDKLKKVPGTKFVSYEEKTGKYVFTVDEPILEGHHHHHH,soluble
18,MAHHHHHHMPLVEYVNEEGYRLDGRKEDECRLIKINVGNENIFTDADGFAFYEIGNTKLLSYIQGPTELKKSEEKCSIKCEVFLSPFNVYEKKKKKTKDSVTNEISAYIRNICENIILLDLYKNSEINIFLYIIERDGGVKHAAINTCILALIDAGIAIKYFISACSVLFLQNRILVDGNQLEINSGAPELTMVIELNTHKIVLLEFDAEVPIDIFEAMVRTCMDCCINLGNVMKLTVKENAIKLLCLNNMLNA,not soluble
19,MGSDKIHHHHHHMPTLTINQRLDALLPKLQDARLLSNRGIGNEIGFYIFDYDAEYEPLVQRYVDRLKLQLTSSPSGFASPSLSEQQDRAGSPIQLILLEIDLYKTILDILSERGVLKKAFELEATKGNAALAKTVAPLVRPDQVIAYIQKKLRGDEQLVIMTGVGASWPLLRSHSILNNLHPVLDKIPLVMFFPGSYDGHELRLFDTFKDDNYYRAFPLIPHQQHHL,not soluble
20,MALLVAKAYKIIDRIKDAESRPDRLTNKDAGDVYRLFMGFPAAGVAASWHALTSDQRVGEVSTTGLALLRELFAGPRSPGANMAVAALAGDVPEDRVRQVCRAYVNRLSA,not soluble
